Square brackets hold non-standard residues; d marks the D form. Ends that are not written are not given here. * marks the point of attachment. FITC = O=C1OC2(c3ccc(O)cc3Oc3cc(O)ccc32)c2ccc(NC(=S)*)cc21; pS = N[C@@H](COP(=O)(O)O)C(=O)O; Ahx = NCCCCCC(=O)O

The chains are these.
B1: FITC-Ahx OPTN LIR peptide 169-185 (pS177) (peptide)
peptide: {FITC-Ahx}-NSSGSSED[pS]FVEIRMAE
B2: FITC-Ahx OPTN LIR peptide 169-185 (WT) (peptide)
peptide: {FITC-Ahx}-NSSGSSEDSFVEIRMAE
B3: FITC-Ahx OPTN LIR peptide 169-185 (pS177 F178A) (peptide)
peptide: {FITC-Ahx}-NSSGSSED[pS]AVEIRMAE
B4: FITC-Ahx OPTN LIR peptide 169-185 (pS177 M183A) (peptide)
peptide: {FITC-Ahx}-NSSGSSED[pS]FVEIRAAE
B5: FITC-Ahx OPTN LIR peptide 169-185 (S177E) (peptide)
peptide: {FITC-Ahx}-NSSGSSEDEFVEIRMAE
B6: FITC-Ahx OPTN LIR peptide 169-185 (F178W) (peptide)
peptide: {FITC-Ahx}-NSSGSSEDSWVEIRMAE
B7: FITC-Ahx OPTN LIR peptide 169-185 (pS177 F178W) (peptide)
peptide: {FITC-Ahx}-NSSGSSED[pS]WVEIRMAE
B8: FITC-Ahx OPTN LIR peptide 169-185 (S177D) (peptide)
peptide: {FITC-Ahx}-NSSGSSEDDFVEIRMAE

The first assay concerns the target T1, GST-fused LC3B (UniProt Q9GZQ8 1-120). In words: SPR. In general terms: SPR reads the build-up and loss of mass on a sensor chip optically.
B1: binding was put at a Kd of 21.2 µM; the koff (in general, the rate constant with which the complex falls apart) was 0.377 s⁻¹; the kon – broadly, the rate constant with which the complex forms – is 17800 M⁻¹ s⁻¹.

For B2, the dissociation constant Kd (in general, the constant that tells how readily two partners part at equilibrium) worked out at 63.5 µM; the koff was determined as 0.0351 s⁻¹; the kon turned out to be 550 M⁻¹ s⁻¹.

Regarding B3, the Kd is above 100 µM.

B4 returned a Kd of 36.7 µM.

Another assay has as its target T1, GST-fused LC3B. In words: microfluidic diffusional sizing.
As for B1, the dissociation constant (Kd) was determined as 14.9 µM and the stoichiometry N (commonly the number of molecules, sites or subunits per partner or assembly) is 1.

B2: binding was put at a Kd of 67.1 µM and the “stoichiometry N” value amounted to 1.

For the molecule B5, the affinity, expressed as Kd, was 40.2 µM and the “stoichiometry N” value was determined as 1.

As to B6, the Kd was 19.1 µM and the “stoichiometry N” value came to 1.

Turning to B3, the “fold increase in Kd against pS177 alone” value turned out to be 7 fold.

Regarding B7, the “fold increase in binding affinity against pS177 alone” value was found to be 7 fold and the “stoichiometry N” value turned out to be 1.

For the molecule B4, the “stoichiometry N” value is 1.

As to B8, binding was characterised by a dissociation constant (Kd) of 36.7 µM and the “stoichiometry N” value amounted to 1.

These data come from article PMC12368060 (Communications Biology, 2025).
